Drawing on patent publication US20230295335A1, this text covers koff, kon and Kd for 1 substance.

pKd: −log10 of the molar value.

Test [1] deals with neonatal Fc receptor (FcRn), His-tagged (SinoBiological, cat. no. CT009-H08H-B) (UniProt P55899). The test can be described thus: SPR kinetics assay at pH 6.0; His-tagged FcRn captured on anti-His chip, antibody 0-100 nM. A general note: In SPR one partner is held on a chip, and binding of the other changes the refractive index at the surface.
Test [2] has the same target. As to the kind of experiment: SPR kinetics assay at pH 6.0; His-tagged FcRn captured on anti-His chip, antibody 0-100 nM; mean of three experiments.

Chain of neonatal Fc receptor (FcRn), His-tagged (SinoBiological, cat. no. CT009-H08H-B) (P55899 24-297 limits assumed, form in doubt): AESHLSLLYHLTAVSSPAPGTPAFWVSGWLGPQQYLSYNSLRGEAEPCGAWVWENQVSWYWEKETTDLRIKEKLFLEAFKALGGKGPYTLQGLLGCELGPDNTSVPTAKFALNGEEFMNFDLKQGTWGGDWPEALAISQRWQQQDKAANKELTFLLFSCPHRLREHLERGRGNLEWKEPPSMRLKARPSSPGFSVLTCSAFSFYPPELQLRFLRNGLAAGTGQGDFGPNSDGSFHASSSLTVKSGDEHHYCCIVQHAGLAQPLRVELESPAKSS

In test [1], IgG1-b12 (antibody) had a koff of 0.0322 s⁻¹ and a kon of 1.1e+06 M⁻¹ s⁻¹. This substance also had a negative-log Kd (pKd) in test [2] of 7.54.

By koff is commonly meant the rate constant with which the complex falls apart. In general, kon refers to the second-order rate constant of association. As a reminder, the pKd is −log10 of the Kd, conventionally taken in molar units.
